The values that follow come from publication PMC11946911.

The target in experiment [1] is EcZorA (ZorA of the Escherichia coli NCTC 9026 type I Zorya system, EcZorI) (Escherichia coli NCTC 9026). Briefly: cryo-EM structure.
For experiment [2], the target named is EcZorB (ZorB of the Escherichia coli NCTC 9026 type I Zorya system, EcZorI) (Escherichia coli NCTC 9026). Briefly: cryo-EM structure.

As to “EcZorA (ZorA of the Escherichia coli NCTC 9026 type I Zorya system, EcZorI) (natural protein)”, the stoichiometry N in experiment [1] came out at 5.

“EcZorB (ZorB of the Escherichia coli NCTC 9026 type I Zorya system, EcZorI) (natural protein)” returned a stoichiometry N in experiment [2] of 2.
